Measured values reported in paper PMC3724782, “The LDL Receptor-Related Protein 1 (LRP1) Regulates the PDGF Signaling Pathway by Binding the Protein Phosphatase SHP-2 and Modulating SHP-2- Mediated PDGF Signaling Events” (PLoS ONE, 2013).
Where two headings read alike, the source gives them in different places.

B1: phosphorylated PDGFRβ kinase domain (domain or fragment, UniProt P09619 558-1106, looked up)
chain: KKPRYEIRWKVIESVSSDGHEYIYVDPMQLPYDSTWELPRDQLVLGRTLGSGAFGQVVEATAHGLSHSQATMKVAVKMLKSTARSSEKQALMSELKIMSHLGPHLNVVNLLGACTKGGPIYIITEYCRYGDLVDYLHRNKHTFLQHHSDKRRPPSAELYSNALPVGLPLPSHVSLTGESDGGYMDMSKDESVDYVPMLDMKGDVKYADIESSNYMAPYDNYVPSAPERTCRATLINESPVLSYMDLVGFSYQVANGMEFLASKNCVHRDLAARNVLICEGKLVKICDFGLARDIMRDSNYISKGSTFLPLKWMAPESIFNSLYTTLSDVWSFGILLWEIFTLGGTPYPELPMNEQFYNAIKRGYRMAQPAHASDEIYEIMQKCWEEKFEIRPPFSQLVLLLERLLGEGYKKKYQQVDEEFLRSDHPAILRSQARLPGFHGLRSPLDTSSVLYTAVQPNEGDNDYIIPLPDPKPEVADEGPLEGSPSLASSTLNEVNTSSTISCDSPLEPQDEPEPEPQLELQVEPEPELEQLPDSGCPAPRAEAEDSFL
modifications: phosphotyrosine (autophosphorylated with ATP and MgCl2; sites not mapped here)
notes: PDGF receptor β (PDGFRβ), kinase domain (KD); as far as I recall the product is a tagged human cytoplasmic fragment reaching to the C-terminus, to be checked with the supplier; also called pPDGFRβ KD; phospho-PDGFRβ KD; source: bought: Millipore (14-463); phosphorylated by incubating the protein with 1 mM ATP and 1 mM MgCl2
B2: unphosphorylated PDGFRβ kinase domain (domain or fragment, UniProt P09619 558-1106, looked up)
chain: B1 chain
notes: PDGF receptor β (PDGFRβ), kinase domain (KD); also called PDGFRβ KD; non-phosphorylated PDGFRβ KD; source: bought: Millipore (14-463)

Molecular target: T1, recombinant human SHP-2 (human, UniProt Q06124 1-593)
T1 construct: SHP-2, protein tyrosine phosphatase with two SH2 domains, human, recombinant; The supplier is named only in the SPR methods; source: bought: R&D Systems, 1894-SH-100
T1 sequence (looked up): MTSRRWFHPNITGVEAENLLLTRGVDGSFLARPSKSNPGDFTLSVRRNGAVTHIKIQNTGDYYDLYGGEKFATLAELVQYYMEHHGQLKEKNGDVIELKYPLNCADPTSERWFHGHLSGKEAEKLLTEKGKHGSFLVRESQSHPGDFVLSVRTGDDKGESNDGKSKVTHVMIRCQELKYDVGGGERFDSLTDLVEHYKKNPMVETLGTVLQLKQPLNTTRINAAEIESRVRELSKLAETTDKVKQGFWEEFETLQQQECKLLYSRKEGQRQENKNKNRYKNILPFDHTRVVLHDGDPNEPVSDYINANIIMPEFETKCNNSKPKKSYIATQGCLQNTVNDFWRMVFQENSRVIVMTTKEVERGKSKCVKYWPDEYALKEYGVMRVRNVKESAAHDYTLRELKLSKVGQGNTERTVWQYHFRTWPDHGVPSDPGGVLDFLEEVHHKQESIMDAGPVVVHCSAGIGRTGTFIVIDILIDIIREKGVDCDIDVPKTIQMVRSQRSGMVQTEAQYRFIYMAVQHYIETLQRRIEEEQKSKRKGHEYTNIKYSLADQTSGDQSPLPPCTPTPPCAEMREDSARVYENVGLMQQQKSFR
Assay: ELISA; wells coated with SHP-2 (5 µg/mL, TBS pH 8) or BSA; GST:LRP1-ICD or PDGFRβ KD titrated in TBS, 0.5% BSA, 0.05% Tween 20, sodium orthovanadate, overnight at 4°C; detected with anti-GST or anti-PDGFRβ antibody; fit to a single class of sites

| Molecule | Kd | Kd (both partners purified) |
| --- | --- | --- |
| phosphorylated GST:LRP1-ICD (LDL receptor-related protein 1 intracellular domain fused to glutathione S-transferase, tyrosine-phosphorylated) (domain or fragment) | 18 nM | – |
| B1 | – | 7.8 ± 1 nM |
| B2 | – | 326 ± 68 nM |
